Consider two molecules from patent publication US20030162205, “Novel transcription factor having zinc finger domain” (published 2003).

Series [1] addresses GST-285N (m285 N-terminal) (Mus musculus, UniProt Q9JHX2 SEQ:1-278). The series is described as follows: EMSA; no complex; lacks zinc fingers. To be noted: tags: GST N-terminal (pGEX 4T-3); label: 33P. The text has this:
(§1) Sp1 is known to bind to a GC-box through its three zinc finger domains. The m285 cloned in the present invention has three zinc finger domains that share a very high homology with the Sp family, and therefore the protein was expected to bind to a GC-box. Thus, 285F, 285N, and 285C were expressed as GST fusion proteins in E. coli to examine their binding to a GC-box. GST fusion proteins purified with glutathione Sepharose, and as the GC box a DNA probe having the nucleotide sequence in the Waf-1 promoter region which sequence binds to Sp1 were used. DNA probe was prepared by labeling ds-(5′-TCGAAAGGAGGCGGGACCCGAGCT-3′/SEQ ID NO: 25) containing a GC-box sequence with 33-P. The DNA probe was reacted with GST-285F, GST-285N, and GST-285C described above in EMSA buffer (20 mM HEPES, 40 mM KCl, 6 MM MgCl₂, 1 mM EGTA, 1 mM DTT, 0.1% NP-40, 10% Glycerol, 0.15% BSA, 25 ng/μl sonicated salmon sperm DNA) for 20 minutes. To examine the presence of competitive inhibition, either an unlabeled GC-box DNA probe or unlabeled mutant GC-box DNA probe (ds-(5′-TCGAAAGGAGTTTTGACCCGGAGCT-3′/SEQ ID NO: 26)) was further added to a similar reaction system. Recombinant Sp1 was used as a positive control. The reactants were electrophoresed on 5% acrylamide gel and were exposed to imaging plates. Analyses were performed using BAS2000 imaging analyzer. […]
On the technique in general: In EMSA bound probe runs differently from free probe, usually more slowly.

Series [2] deals with T1, GST-285F (m285 full length) (Mus musculus, UniProt Q9JHX2 SEQ:1-398). The series is described as follows: EMSA; 20 mM HEPES, 40 mM KCl, 6 mM MgCl2, salmon sperm DNA; competed by unlabeled GC-box. As to conditions: tags: GST N-terminal (pGEX 4T-3); label: 33P.
Text: as §1

For series [3], the target named is T2, GST-285C (m285 C-terminal, three zinc fingers) (Mus musculus, UniProt Q9JHX2 SEQ:271-398). The series can be described thus: EMSA; same buffer; competed by unlabeled GC-box. To be noted: tags: GST N-terminal (pGEX 4T-3); label: 33P.
Text: as §1

Series [4] has as its target T3, Sp1 (UniProt P08047 P08047:2-785). The series can be described thus: EMSA; positive control; competed by unlabeled GC-box. To be noted: label: 33P.
Text: as §1

The target of series [5] is T2, GST-285C (m285 C-terminal, three zinc …). The series is described as follows: competition; unlabeled mutant competitor had no effect on complex with GC-box. To be noted: tags: GST N-terminal (pGEX 4T-3). From the text:
(§2) Sp1 is known to bind to a GC-box through its three zinc finger domains. The m285 cloned in the present invention has three zinc finger domains that share a very high homology with the Sp family, and therefore the protein was expected to bind to a GC-box. Thus, 285F, 285N, and 285C were expressed as GST fusion proteins in E. coli to examine their binding to a GC-box. GST fusion proteins purified with glutathione Sepharose, and as the GC box a DNA probe having the nucleotide sequence in the Waf-1 promoter region which sequence binds to Sp1 were used. DNA probe was prepared by labeling ds-(5′-TCGAAAGGAGGCGGGACCCGAGCT-3′/SEQ ID NO: 25) containing a GC-box sequence with 33-P. The DNA probe was reacted with GST-285F, GST-285N, and GST-285C described above in EMSA buffer (20 mM HEPES, 40 mM KCl, 6 MM MgCl₂, 1 mM EGTA, 1 mM DTT, 0.1% NP-40, 10% Glycerol, 0.15% BSA, 25 ng/μl sonicated salmon sperm DNA) for 20 minutes. To examine the presence of competitive inhibition, either an unlabeled GC-box DNA probe or unlabeled mutant GC-box DNA probe (ds-(5′-TCGAAAGGAGTTTTGACCCGGAGCT-3′/SEQ ID NO: 26)) was further added to a similar reaction system. Recombinant Sp1 was used as a positive control. The reactants were electrophoresed on 5% acrylamide gel and were exposed to imaging plates. Analyses were performed using BAS2000 imaging analyzer.
(§3) As a result of gel shift assay, bands that were considered to correspond to DNA-protein complex were observed when GST-285F, GST-285C, or recombinant Sp1 were reacted with the 33-P labeled GC-box DNA probe (FIG. 9; lanes 1, 4, and 9). No complex b and could be observed for GST-285N reacted with the GC-box DNA probe (FIG. 9; lane 7). The addition of unlabeled GC-box DNA probe vanished or decreased the complex bands of GST-285F, GST-285C, or recombinant Sp1, and the GC-box DNA probe (FIG. 9; lanes 2, 5, and 10). Further, the addition of unlabeled mutant GC-box DNA probe to a similar reaction system had no effect on the complex bands of GST-285F, GST-285C, or recombinant Sp1, and the GC-box DNA probe (FIG. 9; lanes 3, 6, and 11).

Series [6] addresses T1, GST-285F (m285 full length). The description is as above. As to conditions: tags: GST N-terminal (pGEX 4T-3).
Text: as §2, §3

Series [7] concerns the target T3, Sp1. Described as above.
Text: as §2, §3

T2 sequence (Q9JHX2 271-398): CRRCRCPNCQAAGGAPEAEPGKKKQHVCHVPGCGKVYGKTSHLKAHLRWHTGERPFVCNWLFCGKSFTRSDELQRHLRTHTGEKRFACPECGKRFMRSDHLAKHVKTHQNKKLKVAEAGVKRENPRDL
T3 sequence (P08047 2-785, one chain of several): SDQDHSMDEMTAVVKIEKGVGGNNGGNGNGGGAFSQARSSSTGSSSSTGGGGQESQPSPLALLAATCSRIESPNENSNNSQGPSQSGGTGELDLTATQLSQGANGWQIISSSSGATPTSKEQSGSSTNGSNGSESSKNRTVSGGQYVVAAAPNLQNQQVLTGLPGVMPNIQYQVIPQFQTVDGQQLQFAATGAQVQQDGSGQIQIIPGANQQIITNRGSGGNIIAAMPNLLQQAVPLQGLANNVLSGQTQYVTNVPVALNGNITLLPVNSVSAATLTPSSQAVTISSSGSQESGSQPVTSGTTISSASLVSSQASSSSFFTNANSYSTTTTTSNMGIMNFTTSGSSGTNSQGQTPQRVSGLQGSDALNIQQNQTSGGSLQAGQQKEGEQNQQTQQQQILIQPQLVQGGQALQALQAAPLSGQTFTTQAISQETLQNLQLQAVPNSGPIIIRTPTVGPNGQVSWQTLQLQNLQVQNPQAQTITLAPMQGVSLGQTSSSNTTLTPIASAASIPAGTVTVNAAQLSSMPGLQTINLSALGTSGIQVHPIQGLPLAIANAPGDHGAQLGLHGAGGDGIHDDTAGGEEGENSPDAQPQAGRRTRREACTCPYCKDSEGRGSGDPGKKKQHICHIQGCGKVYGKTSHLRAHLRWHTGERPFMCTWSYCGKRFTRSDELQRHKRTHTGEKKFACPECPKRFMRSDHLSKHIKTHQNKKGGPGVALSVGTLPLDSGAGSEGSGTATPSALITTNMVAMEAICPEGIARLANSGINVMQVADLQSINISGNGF
T1 sequence (Q9JHX2 whole entry): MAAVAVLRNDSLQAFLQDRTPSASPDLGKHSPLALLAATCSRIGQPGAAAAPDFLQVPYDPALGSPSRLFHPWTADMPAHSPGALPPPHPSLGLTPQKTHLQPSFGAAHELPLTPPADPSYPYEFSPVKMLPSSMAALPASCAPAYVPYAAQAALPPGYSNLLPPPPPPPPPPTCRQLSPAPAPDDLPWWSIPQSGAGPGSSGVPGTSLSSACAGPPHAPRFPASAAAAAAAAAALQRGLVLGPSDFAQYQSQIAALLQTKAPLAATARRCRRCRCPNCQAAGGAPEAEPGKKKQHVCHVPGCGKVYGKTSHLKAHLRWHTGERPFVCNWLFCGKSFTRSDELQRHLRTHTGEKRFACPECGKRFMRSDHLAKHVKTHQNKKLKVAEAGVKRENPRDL
Sequence of GST-285N (m285 N-terminal) (Q9JHX2 1-278): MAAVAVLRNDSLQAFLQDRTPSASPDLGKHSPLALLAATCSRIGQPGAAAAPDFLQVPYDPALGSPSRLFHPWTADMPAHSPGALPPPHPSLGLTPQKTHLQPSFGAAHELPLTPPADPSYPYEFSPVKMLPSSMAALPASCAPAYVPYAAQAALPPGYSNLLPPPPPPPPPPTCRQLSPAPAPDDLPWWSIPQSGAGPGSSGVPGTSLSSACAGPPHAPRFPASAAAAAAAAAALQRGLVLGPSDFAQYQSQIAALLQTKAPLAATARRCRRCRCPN

B1: Waf-1 promoter GC-box probe (dsDNA)
DNA 1: TCGAAAGGAGGCGGGACCCGAGCT
DNA 2: AGCTCGGGTCCCGCCTCCTTTCGA
With B1, the binding result in series [1] is listed as “no binding”; in series [2], “binds”; in series [3], “binds”; with Sp1 [4], “binds”.

B2: mutant GC-box (dsDNA)
DNA 1: TCGAAAGGAGTTTTGACCCGGAGCT
DNA 2: AGCTCCGGGTCAAAACTCCTTTCGA
For the molecule B2, the binding result (in series [5]; in series [6]; with Sp1 [7]) was “no binding” each time.
